A word on the EC50: it is the concentration giving half of the maximal effect.

Our source for the EC50 and MFI_Max values is US20250136687A1 (SHANDONG SIMCERE BIOPHARMACEUTICAL, published 2025).

Like-named read-outs stand apart in the source and are kept apart here.

In test [1] the target is T1, human CD3 on the cell surface (Jurkat cells, expanded human T cells, Jurkat-Lucia NFAT cells, human PBMC) (human, UniProt P07766 23-207; P04234 22-171; P09693 23-182).
T1 construct: whole, on cells; Endogenous CD3 within the TCR-CD3 complex on cells (also zeta chains and TCR); the cell type is named under assay
T1 sequence (P07766 23-207, chain 1 of 3): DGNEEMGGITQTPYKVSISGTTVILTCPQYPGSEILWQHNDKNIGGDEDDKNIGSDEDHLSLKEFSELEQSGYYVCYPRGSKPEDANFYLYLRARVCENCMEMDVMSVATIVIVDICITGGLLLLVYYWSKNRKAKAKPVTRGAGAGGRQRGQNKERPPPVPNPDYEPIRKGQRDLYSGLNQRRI
T1 sequence (P04234 22-171, chain 2 of 3): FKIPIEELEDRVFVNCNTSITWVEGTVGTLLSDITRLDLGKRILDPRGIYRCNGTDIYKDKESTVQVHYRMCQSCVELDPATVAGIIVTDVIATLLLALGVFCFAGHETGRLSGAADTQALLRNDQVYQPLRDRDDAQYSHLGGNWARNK
T1 sequence (P09693 23-182, chain 3 of 3): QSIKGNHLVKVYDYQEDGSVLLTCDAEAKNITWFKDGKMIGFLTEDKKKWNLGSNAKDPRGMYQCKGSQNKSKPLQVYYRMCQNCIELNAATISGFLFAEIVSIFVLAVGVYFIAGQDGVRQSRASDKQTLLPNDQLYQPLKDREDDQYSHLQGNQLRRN
The test is described as follows: FACS, expanded human T cells. A general note: Flow cytometry measures light scatter and fluorescence of single cells or particles in a stream.

Test [2] concerns the target T2, cynomolgus monkey CD3 on the surface of expanded monkey T cells (cynomolgus monkey, UniProt Q95LI5 22-198; Q95LI8 22-171; Q95LI7 23-181).
T2 construct: whole, on cells; Endogenous CD3 within the TCR-CD3 complex on T cells expanded from cynomolgus monkey PBMC
Put plainly: FACS, expanded monkey T cells.

For test [3], the target named is T2, cynomolgus monkey CD3 on the surface of …. Put plainly: FACS, expanded monkey T cells. The protocol: (§1) The binding of the chimeric antibodies to CD3 on the cell surface was analyzed by detecting the binding of the antibodies to Jurkat cells and human T cells. Suspension cells Jurkat cells were scale-up cultured in T-75 cell culture flasks to the logarithmic growth phase, the supernatant of the medium was discarded by centrifugation, and the cell pellet was washed 2 times with PBS for later use. The expanded human T cells were washed 2 times with PBS for later use. After counting the cells in the previous step, the cell pellet was resuspended with [PBS+2% (w/w) BSA] blocking solution to 4×10⁶ cells/ml, and added to a 96-well FACS reaction plate at 50 μl/well, and then the chimeric antibody to be tested was added at 50 μl/well, and incubated at 4° C. for 1 h. The cells were centrifuged and washed 3 times with a PBS buffer. […] The cells were centrifuged and washed 5 times with PBS, and FACS (FACS Canto™, purchased from BD Company) was used for detection and result analysis. Data analysis was performed by software (CellQuest) to obtain the mean fluorescence […] (MFI) of the cells. And then software (GraphPad Prism8) was used for analysis, data fitting, and EC50 value calculation. The same method was used to simultaneously detect the binding of the chimeric antibodies to endogenous CD3 negative cells MOLT4 cells.
FACS detection and data analysis were performed on the cryopreserved monkey T cells of Example 2.4 according to the method in Example 5.1.
The source holds these as a separate data set.

Test [4] concerns the target T1, human CD3 on the cell surface (Jurkat …). The test is described as follows: FACS, Jurkat cells. Here is the method:
Suspension cells Jurkat cells (purchased from Cell bank of Chinese Academy of Sciences) were scale-up cultured in T-175 cell culture flasks to the logarithmic growth phase, the supernatant of the medium was discarded by centrifugation, and the cell pellet was washed 2 times with PBS. After counting the cells in the previous step, the cell pellet was resuspended with [PBS+2% (w/v) FBS] blocking solution to 4×10⁶ cells/ml, and added to a 96-well FACS reaction plate at 50 μl/well, the supernatant was removed by centrifugation, detection antibodies (initial concentration of […], gradient dilution at 1:5) and an IgG negative control were added at 100 μl/well, the cells were uniformly mixed, and incubated on ice for 1 h. The cells were centrifuged and washed 3 times with a PBS buffer. […] The cells were centrifuged and washed 5 times with a PBS buffer, and FACS (FACS Canto II, purchased from BD Company) was used for detection and result analysis. Data analysis was performed by software (CellQuest) to obtain the mean fluorescence intensity (MFI) of the cells. And then software (GraphPad Prism8) was used for analysis, data fitting, and EC50 value calculation.

The target is the same in test [5]. The test is described as follows: FACS, expanded human T cells. Here is the method: as §1
The source holds these as a separate data set.

Test [6] has the same target. The test is described as follows: FACS, Jurkat cells. Here is the method:
as §1
This is another data set of the same source.

T2 sequence (Q95LI5 22-198, chain 1 of 3): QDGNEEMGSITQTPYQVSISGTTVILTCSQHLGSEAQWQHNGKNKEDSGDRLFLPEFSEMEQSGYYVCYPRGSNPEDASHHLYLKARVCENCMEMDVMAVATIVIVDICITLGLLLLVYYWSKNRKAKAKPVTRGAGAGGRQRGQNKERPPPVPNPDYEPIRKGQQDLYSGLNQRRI
T2 sequence (Q95LI8 22-171, chain 2 of 3): as the sequence (P04234 22-171, chain 2 of 3) above, with I5V, N15K, I20V, S32T, D33N, I34N, T64A, S74N, V83L, H141R counted along it
T2 sequence (Q95LI7 23-181, chain 3 of 3): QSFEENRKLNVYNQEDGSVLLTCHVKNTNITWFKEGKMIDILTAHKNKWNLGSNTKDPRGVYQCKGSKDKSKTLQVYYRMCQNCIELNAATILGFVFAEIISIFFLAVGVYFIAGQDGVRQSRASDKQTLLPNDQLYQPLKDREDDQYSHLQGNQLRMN

B1: SP34-hIgG1 (antibody)
heavy: not shown
light: QAVVTQESALTTSPGETVTLTCRSSTGAVTTSNYANWVQEKPDHLFTGLIGGTNKRAPGVPARFSGSLIGDKAALTITGAQTEDEAIYFCALWYSNLWVFGGGTKLTVLRTVAAPSVFIFPPSDEQLKSGTASVVCLLNNFYPREAKVQWKVDNALQSGNSQESVTEQDSKDSTYSLSSTLTLSKADYEKHKVYACEVTHQGLSSPVTKSFNRGEC
notes: Positive control
In the case of B1, the EC50 came to 2540 pM in test [1]; 490 pM in test [2]; 270 pM in test [3]; 450 pM in test [4]; 430 pM in test [5]; 130 pM in test [6]. Moreover, the MFI_Max in test [3] was found to be 64700 MFI; in test [5], 43100 MFI; in test [6] it was 7020 MFI.
